Reference: the supplement of paper PMC9170038

System: K4 kissing-loop RNA reporter
Test: apparent KD of K4 kissing-loop reporter; higher = weaker reporter binding
Conditions: Eterna round: R107
Procedure: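 RNA-MaP round R107: designed RNA switches with theophylline, tryptophan, arginine or FMN aptamers are transcribed on-chip within common flanks. They are titrated with a labelled K4 kissing-loop RNA reporter in RNA-MaP buffer (100 mM Tris pH 7.5, 80 mM KCl, 4 mM MgCl2), without ligand or with the indicated ligand. Median apparent KD per design.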

[1] = input ligand: theophylline 20 uM
[2] = input ligand: tryptophan 2.4 mM
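Also: bound reporter read as fluorescence of individual clusters on recovered sequencing chips by microscopy, with normalized cluster intensities fitted with a binding model.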

| Sequence | apparent KD of K4 kissing-loop reporter (input ligand: FMN 200 uM) [nM] | apparent KD of K4 kissing-loop reporter (input ligand: arginine 13.2 mM) [nM] | apparent KD of K4 kissing-loop reporter (input ligand: none) [nM] | apparent KD of K4 kissing-loop reporter [1] [nM] | apparent KD of K4 kissing-loop reporter [2] [nM] |
| --- | --- | --- | --- | --- | --- |
| AAGAAGAAUGGAAGGAGCGAGCAGAUAUAACCAGUGAUGUUGGAAAGCCUUAUUGCUUAAGCUCAGGUAGGUCGCCAAGAAGAGA [whbob_Ex_Arginine_B_2t152] | 179 | 159 | 179 | 192 | 184 |
| AAGAAGGUCAAAGACCUUCGUGCACGUGAUACCAGUCGCGAAAGCGACCCUUGGCAGCACGGCAGUGAUGUUGCCAAGUGCACAA [#12 K4 Theophylline A Same State] | 407 | 249 | 498 | 664 | 545 |
| AAGAGCUAGGCGGCCGCCACUAGAUGUGAACACAUACAAGCCAGUGAUGUUGGUAUGAUGGACAGUAGGACCGGGCCUAGCUGAA [Exclusion - Tryptophan B (Freestyle 9)] | 353 | 377 | 407 | 368 | 421 |
| AAGAGCUAGGCGGCCGCCACUAGAUGUGAACACAUACAAGCCAGUGAUGUUGGUAUGAUGGACGGUAGGACCGGGCCUAGCUGAA [Exclusion - Tryptophan B (Freestyle 12)] | 290 | 464 | 394 | 381 | 294 |
| AAGAGGACCAACAUCACUAGUCCUCGAAUACGAGGACCGGUACGGCCGCCACUCGAUAACUUGCAGUGAUGUUGCAAGUAAGAAU [(T)''-(K)'-(T)'-(T1)-(T2)-(K1)-(K2)_Design3] | 369 | 253 | 307 | 345 | 439 |
| AAGAGUAAACUCUAACUCCUUAAGUCCGAAGGAGCGACUCAAUGGUCAGGUAGGUCGCGGACAAUCCUAGUGAUGUUAGGAUCUG [Arg A SS t5] | 252 | 220 | 268 | 260 | 211 |
| AAGCAGUCACUCGAAACCAUCGAAGAUGGACGAGGACCGGUACGGCCGCCACUCGGAGUGAUGUUCCGAAGACUGCAAAAUAAAA | 373 | 374 | 374 | 434 | 370 |
| AAGCAGUCACUCGAAUCCAUCGAAGAUGGGCGAGGACCGGUACGGCCGCCACUCGGAGUGAUGUUCCGAAGACUGCAAAAUAAAA | 262 | 264 | 419 | 786 | 378 |
| AAGCAGUCACUCGUAGCCAUCGAAGAUGGUCGAGGACCGGUACGGCCGCCACUCGGAGUGAUGUUCCGAAGACUGCAAAAUAAAA | 272 | 313 | 337 | 378 | 364 |
| AAGCAGUCUCUUGUAAUCAUCGAAGAUGAACGAGGACCGGUACGGCCGCCACUCGGAGUGAUGUUCCGAAGACUGCAAAAUAAAA [MatMod 16 - Jieux - Exclusion - Tryptophan A] | 650 | 494 | 676 | 873 | 219 |
| AAGCAUUCUUCGGAAUGCAGACCCGCUGAGGAGGAUAUGACGAAAGUCAGAAGGUCUCAGUGAUGUUGAGGCCUCCUCAAUGGUC [whbob_Ex_FMNA__2th181] | 212 | 160 | 155 | 160 | 162 |
| AAGCAUUCUUCGGAUUGCAGACCCGCUGAGGAGGAUAUGACGAAAGUCAGAAGGUUUCAGUGAUGUUGAGGCCUCCUCAAUGGUC [whbob_Ex_FMNA__2th183] | 280 | 259 | 250 | 255 | 263 |
| AAGCCAGUGAUGUUGGCAAAAUUUACUGAAGGAGCGCGUGAAAACGCAGGUAGGUCGCAGAACCUUGCCAACUAACACGAAAGUG [Ex Arginine A K4 20] | 261 | 237 | 253 | 469 | 251 |
| AAGCCCAGUGAUGUUGGAAGCGCGUACGAUACCAGCGAAUCGGAACGCCCUUGGCAGCGUACAGAGUUGGCGGAAGAUAGGACAG [theeternabot_sameState_KL_Theo_A_14] | 548 | 507 | 643 | 637 | 527 |
| AAGCUCAGCGUGACUCGAUAAGAGUCACAACGAGGACCGGUACGGCCGCCACUCGAAAUAAGGGAGUGAUGUUCUCGCUGAGCAA [#SwitchBubble 5 #StaticStem #K4Late] | 348 | 134 | 291 | 364 | 587 |
| AAGGAUCAGAGAGUGAUGUUCUCUAAUAAACGAGGACCGGUACGGCCGCCACUCGAAUAAGAUCCAGUCCUACGAAAAGUAGGAC [Omei inspired 6] | 431 | 338 | 485 | 613 | 132 |
| AAGGCCACGAGAAGGAGCGUGUUGUGGAGUGAUGUUCCAUUGUAGACCUAAGGUCUGCAAGCACAGGUAGGUCGCUCGUGGUCAA [whbob_SS_Arginine_B_2t149] | 127 | 123 | 139 | 138 | 127 |
| AAGGGCCGGGCGGCCGCCACUGGUCGUGUACACGUACUAACCAGUGAUGUUGGUAUAGUACGCGACAGGACCGGGCCCGGCCCAA [Exclusion - Tryptophan B (Freestyle 30)] | 405 | 359 | 445 | 297 | 236 |
| AAGGGCGGGACUUUCUCGCCGGAUAGAGAUACCAGCCCAGCAAAGGGCCCUUGGCAGCUCACUGACCUCAGUGAUGUUGAGGUUC [Soerrainat] | 295 | 240 | 242 | 199 | 266 |
| AAGGUAUCUAGAUACAUUACUGAACUAGAUACCAGCAUCGAAAGAUGCCCUUGGCAGCUAGCAGUGAUGUUGCUAGCAAUAAGAA [Design3] | 121 | 109 | 113 | 112 | 119 |
| AAGGUUGUGCAUGGGAGUGAUGUUCCCAAGCAGGAUAUCGCUCACGCGAGAAGGGCUUGCACAACCGCUCAAGAAACUUGAGCAA [Omei KL FMN A SS C v6] | 129 | 179 | 195 | 200 | 188 |

| Sequence | apparent KD of K4 kissing-loop reporter (input ligand: FMN 200 uM) [nM] | apparent KD of K4 kissing-loop reporter (input ligand: arginine 13.2 mM) [nM] | apparent KD of K4 kissing-loop reporter (input ligand: none) [nM] | apparent KD of K4 kissing-loop reporter [1] [nM] | apparent KD of K4 kissing-loop reporter [2] [nM] |
| --- | --- | --- | --- | --- | --- |
| AAGGUUGUGCAUGGGAGUGAUGUUCCCACGCAGGAUAUCGCUCUCGCGAGAAGGGCGAGCACAACCGCUCAAGAAACUUGAGCAA [Omei KL FMN A SS C v3] | 129 | 320 | 480 | 402 | 388 |
| AAGGUUGUGCAUGGGAGUGAUGUUCCCAGGCAGGAUAUCGCUCACGCGAGAAGGGCUAGCACAACCGCUCAAGAAACUUGAGCAA [Omei KL FMN A SS C v4] | 117 | 97.1 | 113 | 116 | 94.5 |
| AAGUAGCUCUCGGCCGCCACUCCUCAGUGAUGUUGAGAUAUUAAGAGACAAUUGUCUCAUAUAAAGAGGACCGGGAGAGCUACAA [AK5 SS Tryptophan B] | 445 | 384 | 439 | 460 | 133 |
| AAGUGAUGUUGUAGUGAUGUUGUGAUGUUGCAGGAUAUAUAGUGAUGUAGAAGGGUAAGUACUGAUGUUGUUAGUAAGUGAUGUU [tvvbmullin] | 106 | 50.1 | 89.9 | 76.6 | 77.8 |
| AAGUGAUGUUGUAGUGAUGUUGUGAUGUUGCAGGAUAUAUAGUGAUGUAGAAGGGUAAGUACUGAUUUUGUUUGUGAGUGAUGUU [zqqzzrmullin] | 92.8 | 40.1 | 73.8 | 61.1 | 67.8 |
| AAGUGAUGUUGUAGUGAUGUUGUGAUGUUGCAGGAUAUAUAGUGAUGUAGAAGGGUAAGUACUGAUUUUUUUUUUGAGUGAUGUU [ccbyzrmullin] | 96.4 | 43 | 74.5 | 53.9 | 73.8 |
| AAGUGAUGUUGUAGUGAUGUUGUGAUGUUGCAGGAUAUAUAGUGAUGUAGAAGGGUAUGUACUGAUUUUUUUUUUGAGUGAUGUU [awaqmullin] | 99.2 | 43 | 77.3 | 58.8 | 79.9 |
| AAGUGCCUCAAGAGGCAGUAUCUGCCUCAACGAGGACCGGUACGGCCGCCACUCGAAUAAUAGAGUGAUGUUCUAAGAGGCACAA [AK1.5 SS Tryptophan A] | 461 | 284 | 483 | 261 | 432 |
| AAGUGUCAUUAGACACACUGAUGUAUAAACUAGGAUAUGCUGAUAAGCAGAAGGAGUGAUGUUCCUUUCAUCAUCAGAAUUAAAU [KL-XFMN-A2] | 167 | 113 | 110 | 127 | 94.5 |
| AAGUGUGUGGCGGCCGCCACUAGAAUCCAGUGAUGUUGGAAUAAUCAAAUAAAUAAUAAUAAACAUAGGACCGGGCCAUAUAGAA [Same State - Tryptophan B (Freestyle 1)] | 145 | 140 | 145 | 157 | 139 |
| AAGUGUGUGGCGGCCGCCACUAGAAUCCAGUGAUGUUGGAGAUAUCAGGUAACUGAUAUCCAACAUAGGACCGGGCCAUAUAGAA [Same State - Tryptophan B (Freestyle 11)] | 152 | 104 | 144 | 108 | 91.9 |
| AAGUGUGUGGCGGCCGCCACUAGUAUCCAGUGAUGUUGGAGAUAUCACGUAAGUGAUAUCCUACAUAGGACCGGGCCAUAUAGAA [Same State - Tryptophan B (Freestyle 20)] | 392 | 391 | 337 | 540 | 510 |
| AAGUGUUCUAGUGAUACCAGACAAUUUUAUUUUUUCUUUUUUGCUAAGUGAUGUUUAGCAGUCCCUUGGCAGCACUAUUUCACUA [JR_SSTheophyB_Sub018] | 129 | 109 | 106 | 147 | 128 |
| AAGUUGAACUGAAGGAGCGAGAAAUAGAAUGUAAGAAUAUAUGCUAGUGAUGUUAGAAAUUCUCAGGUAGGUCGCAGUAAGAUUU [V1.1] | 277 | 328 | 330 | 558 | 192 |
| AAUAAAAUCACGGCCGCCACUAAUGCUAGUAUUAGCAGUGAUGUUGCUAUGUAUAUUUUAUUUAAUAGGACCGGGUGAAUAUUUA [#23 K4 Tryptophan B Exclusion] | 332 | 294 | 346 | 308 | 224 |
| AAUAAAAUCACGGCCGCCACUGAAUAAUUGGUAAGUAGUGAUGUUACUUUACAUAUCUUAUUUAACAGGACCGGGUGAAUAUUUA [JR_ExcTryptoB_Sub008] | 134 | 92.4 | 116 | 103 | 131 |
| AAUAAAAUCACGGCCGCCACUGAAUAAUUGUUAAGUAGUGAUGUUACUUUACUUUUCUUAGUUAACAGGACCGGGUGAAUAUUUA [#18 K4 Tryptophan B Exclusion] | 113 | 101 | 107 | 101 | 190 |
| AAUAAAAUCACGGCCGCCACUGAUAUCCAUAUUAGGAGUGAUGUUCCUUUGACUAUAUAAUUUUACAGGACCGGGUGAAUAUUUA [JR_Nu_SSTryptoB_Sub027] | 104 | 143 | 120 | 131 | 90.8 |
| AAUAAAAUCACGGCCGCCACUGAUGUUAAUAUUAGCAGUGAUGUUGCUAUGUCGUUUUUAUUUAACAGGACCGGGUGAAUAUUUA [JR_ExcTryptoB_Sub013] | 183 | 182 | 171 | 188 | 154 |
| AAUAAGCGUGGAAGGAGCGUCGUCCAGUGAUGUUGGAGUUAGAUACCAGUGAUGUUGGUUAGGCAGGUAGGUCGCCGCAAAGCUU [Exclusion Arginine B Gf 7] | 96.8 | 67.6 | 90.8 | 86.3 | 81 |
| AAUACACUGUCGGCCGCCACUCUCGGCUGCAGUGUGCAGGGACAUGAGUGAUGUUUAUGUCGCGUGAGGACCGGGACUGAUGUAU [KL-SSTryp-B1 #analogue] | 326 | 257 | 312 | 326 | 209 |
